Data from publication PMC5897774, “Mitotic spindle association of TACC3 requires Aurora‐A‐dependent stabilization of a cryptic α‐helix” (The EMBO Journal, 2018).
Positions count from the first letter of the chain named. Non-standard residues stand in square brackets, D forms with d. No end group written: not given here. pS = N[C@@H](COP(=O)(O)O)C(=O)O; FAM = fluorescein label

T1: Aurora‐A R151A (Homo sapiens, UniProt O14965, C290A/C393A/R151A)
T1 construct: pET30TEV Aurora‐A 122–403 C290A, C393A were produced in a similar manner; made in house
T1 sequence (O14965 122-403 R151A/C290A/C393A): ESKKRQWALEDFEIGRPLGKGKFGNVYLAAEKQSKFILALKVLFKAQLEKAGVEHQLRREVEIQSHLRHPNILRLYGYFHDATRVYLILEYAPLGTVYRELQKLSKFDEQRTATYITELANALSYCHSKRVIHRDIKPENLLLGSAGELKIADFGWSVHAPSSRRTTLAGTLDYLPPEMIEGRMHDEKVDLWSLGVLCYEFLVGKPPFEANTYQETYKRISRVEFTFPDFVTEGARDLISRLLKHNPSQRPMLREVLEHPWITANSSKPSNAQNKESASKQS

T2: TACC3 546-573 pS558 (Homo sapiens, phospho-Ser558; FAM-labelled)
T2 chain: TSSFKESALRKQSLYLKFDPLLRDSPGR

T3: TACC3 552-567 pS558 (Homo sapiens, also: FAM-labelled, place not given here)
T3 chain: SALRKQ[pS]LYLKFDPLL

T4: FAM‐phospho‐TACC3^CID L559A (human, UniProt Q9Y6A5 549-570, L559A, fluorescein (FAM) label; phosphoserine at 558)
T4 construct: TACC3, human, aa549–570 (TACC3^CID); source: FAM‐labelled peptide (FAM‐TACC3 peptides: PPR, Cambridge; Almac, Craigavon)
T4 peptide (looked up): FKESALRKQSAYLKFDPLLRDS

T5: FAM‐phospho‐TACC3^CID Y560A (human, UniProt Q9Y6A5 549-570, Y560A, fluorescein (FAM) label; phosphoserine at 558)
T5 construct: TACC3, human, aa549–570 (TACC3^CID); source: FAM‐labelled peptide (FAM‐TACC3 peptides: PPR, Cambridge; Almac, Craigavon)
T5 peptide (looked up): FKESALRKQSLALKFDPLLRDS

T6: FAM‐phospho‐TACC3^CID F563A (human, UniProt Q9Y6A5 549-570, F563A, fluorescein (FAM) label; phosphoserine at 558)
T6 construct: TACC3, human, aa549–570 (TACC3^CID); source: FAM‐labelled peptide (FAM‐TACC3 peptides: PPR, Cambridge; Almac, Craigavon)
T6 peptide (looked up): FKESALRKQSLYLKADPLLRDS

T7: CHC 1–574 R481E (UniProt Q00610 1-574, R481E)
T7 construct: source: expressed and purified as the WT protein (modified pGEX vector; GST cleaved with TEV)
T7 sequence (looked up): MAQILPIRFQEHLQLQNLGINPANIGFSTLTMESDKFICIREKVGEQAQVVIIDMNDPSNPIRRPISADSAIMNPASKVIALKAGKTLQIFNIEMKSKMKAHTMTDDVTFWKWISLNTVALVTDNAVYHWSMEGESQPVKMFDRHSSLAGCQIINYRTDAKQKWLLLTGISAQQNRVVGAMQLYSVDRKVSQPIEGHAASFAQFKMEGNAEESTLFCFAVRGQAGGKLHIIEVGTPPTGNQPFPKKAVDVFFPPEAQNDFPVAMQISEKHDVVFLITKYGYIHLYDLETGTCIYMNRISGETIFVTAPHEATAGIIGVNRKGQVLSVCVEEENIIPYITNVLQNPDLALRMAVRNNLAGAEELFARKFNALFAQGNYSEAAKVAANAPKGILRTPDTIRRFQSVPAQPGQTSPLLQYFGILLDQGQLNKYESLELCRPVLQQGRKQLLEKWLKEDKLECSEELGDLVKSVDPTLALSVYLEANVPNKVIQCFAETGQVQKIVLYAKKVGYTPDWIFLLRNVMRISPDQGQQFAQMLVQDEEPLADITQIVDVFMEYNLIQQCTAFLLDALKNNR

T8: CHC 1–574 L480D (UniProt Q00610 1-574, L480D)
T8 construct: source: expressed and purified as the WT protein (modified pGEX vector; GST cleaved with TEV)
T8 sequence (looked up): T7 sequence (looked up) with L480D, E481R

T9: CHC 1–574 L476D, L480D (UniProt Q00610 1-574, L476D | L480D)
T9 construct: source: expressed and purified as the WT protein (modified pGEX vector; GST cleaved with TEV)
T9 sequence (looked up): T7 sequence (looked up) with L476D, L480D, E481R

T10: CHC 1–574 L503A/Y504A (UniProt Q00610 1-574, L503A | Y504A)
T10 construct: source: expressed and purified as the WT protein (modified pGEX vector; GST cleaved with TEV)
T10 sequence (looked up): T7 sequence (looked up) with E481R, L503A, Y504A

B1: CHC 1–574 (clathrin heavy chain propeller‐ankle fragment) (domain or fragment, UniProt Q00610 1-574, looked up)
chain: T7 sequence (looked up) with E481R
notes: source: modified pGEX vector
B2: FAM‐TACC3 549–570 phosphorylated on S558 (FAM‐phospho‐TACC3^CID) (peptide, UniProt Q9Y6A5 549-570, looked up)
peptide: {FAM}-FKESALRKQ[pS]LYLKFDPLLRDS
notes: TACC3, human, aa549–570 (TACC3^CID); also called pTACC3^CID; FAM‐labelled pTACC3^CID; source: FAM‐labelled peptide (FAM‐TACC3 peptides: PPR, Cambridge; Almac, Craigavon)

How the values were obtained:
[1] = biological target: T1, Aurora‐A R151A; test: FP binding assay, Aurora‐A R151A; settings: fluorescence polarization, Aurora‐A R151A relative to WT Aurora‐A
Description: The contributions of the site 1 residues to the interaction were quantified using fluorescence polarization spectroscopy (FP) with a set of fluorescein (FAM)‐labelled peptides.
Binding assays were performed in triplicate. FP signal was fit to a one‐site total binding model in Prism 6 (GraphPad). Results are reported as K d ± SE.

[2] = biological target: T2, TACC3 546-573 pS558; test: FP
[3] = biological target: T3, TACC3 552-567 pS558; test: FP
[4] = biological target: The R555A mutation alone or in combination with K556A (FAM‐phospho‐TACC3^CID peptides); test: fluorescence polarisation; CHC proteins serially diluted in 20 mM HEPES–NaOH pH 7.5, 200 mM NaCl, 5 mM DTT; 50 nM FAM‐labelled TACC3 peptide; 30 min at room temperature; read at 25°C
[5] = biological target: B2; test: as above; settings: both partners purified
[6] = biological target: T4, FAM‐phospho‐TACC3^CID L559A; test: as above; settings: both partners purified
[7] = biological target: T5, FAM‐phospho‐TACC3^CID Y560A; test: as above; settings: both partners purified
[8] = biological target: T6, FAM‐phospho‐TACC3^CID F563A; test: as above; settings: both partners purified
[9] = biological target: T7, CHC 1–574 R481E; test: as above; settings: both partners purified
[10] = biological target: T8, CHC 1–574 L480D; test: as above; settings: both partners purified
[11] = biological target: T9, CHC 1–574 L476D, L480D; test: as above; settings: both partners purified
[12] = biological target: T10, CHC 1–574 L503A/Y504A; test: as above; settings: both partners purified

CC(C)C[C@H](NC(=O)[C@@H](NC(=O)[C@H](CCC(=O)O)NC(=O)[C@H](C)NC(=O)[C@@H]1CCCN1C(=O)[C@H](CC(=O)O)NC(=O)[C@H](CCCNC(=N)N)NC(=O)[C@H](Cc1ccccc1)NC(=O)[C@H](CO)NC(=O)[C@H](CCC(=O)O)NC(=O)[C@H](CCC(=O)O)NC(=O)c1ccc2c(c1)C(=O)OC21c2ccc(O)cc2Oc2cc(O)ccc21)C(C)C)C(=O)NCC(=O)N[C@H](C(=O)NCC(=O)N[C@@H](C)C(=O)O)[C@@H](C)O [FAM‐TACC3 522–536]
reduced affinity [1]: 40 fold

B1
Kd [2]: 39 µM | Kd [3]: 48 µM | fold reduction in affinity against WT [4]: 4 to 5 fold | fold increase in affinity against non‐phosphorylated TACC3^CID [5]: 4 fold | fold reduction in affinity against WT [6]: ≥ 4 fold | fold reduction in affinity against WT [7]: ≥ 4 fold | fold reduction in affinity against WT [8]: ≥ 4 fold

B2
Kd [9]: > 300 µM | Kd [10]: > 300 µM | Kd [11]: > 300 µM | Kd [12]: > 300 µM
